The Kd is a measure of binding affinity in units of concentration.

The results in this text go back to patent US20260023068A1, “USE OF A FBXO42 SPECIFIC INHIBITOR IN TREATING NOTCH SIGNALING-DEPENDENT DISEASE” (WESTLAKE UNIVERSITY, priority 2022, published 2026).

One experiment deals with T1, CUL1 (UniProt Q13616 1-776).
T1 construct: also called Cullin-1
The experiment can be described thus: TAP-MS with FBXO42 as the bait in HEK293T cells. How it is done: TAP purification was performed as described previously (W Bian et al., Low-density-lipoprotein-receptor-related protein 1 mediates Notch pathway activation. Dev Cell 56, 2902-2919 e2908 (2021)). Briefly, 1×10⁸ HEK293T cells stably expressing cSFB-RBPJ or FBXO42 were lysed in 5 ml of NETN buffer (with protease inhibitors) at 4° C. for 30 min followed by TurboNuclease treatment. The lysate was then incubated with streptavidin-conjugated beads (Thermo Fisher Scientific, Waltham, MA) for 2 h at 4° C. After washing with NETN buffer, the bound proteins were eluted with NETN buffer containing 2 mg/mL biotin (Sigma, St. Louis, MO) for 2 h at 4° C. The eluates were then incubated with S-protein beads (EMD Millipore, Burlington, […]) for 4 h. The beads were washed three times with NETN buffer and subjected to SDS-PAGE, followed by Coomassie blue staining. The whole band was excised and subjected to in-gel trypsin digestion and MS analysis.
FBXO42 is a substrate-recognition component of the SKP1-CUL1-F-box protein (SCF)-type E3 ligase complex, which has been previously reported to promote p53 ubiquitination and degradation (L. Sun et al., JFK, a Kelch domain-containing F-box protein, links the SCF complex to p53 regulation. Proc Natl Acad Sci USA 106,10195-10200 (2009)). […]

The target of experiment [1] is cSFB-tagged RBPJ (recombination signal-binding protein of immunoglobulin kappa J region with C-terminal SFB tag), Q06330. The experiment can be described thus: biomolecular interaction kinetics with purified proteins; RBPJ at 225 nM loaded on SA probe, FBXO42 at 19.5-625 nM. The following applies: remark: other sources report otherwise.
Sequence of cSFB-tagged RBPJ (recombination signal-binding protein of immunoglobulin kappa J region with C-terminal SFB tag), Q06330 (Q06330 whole entry): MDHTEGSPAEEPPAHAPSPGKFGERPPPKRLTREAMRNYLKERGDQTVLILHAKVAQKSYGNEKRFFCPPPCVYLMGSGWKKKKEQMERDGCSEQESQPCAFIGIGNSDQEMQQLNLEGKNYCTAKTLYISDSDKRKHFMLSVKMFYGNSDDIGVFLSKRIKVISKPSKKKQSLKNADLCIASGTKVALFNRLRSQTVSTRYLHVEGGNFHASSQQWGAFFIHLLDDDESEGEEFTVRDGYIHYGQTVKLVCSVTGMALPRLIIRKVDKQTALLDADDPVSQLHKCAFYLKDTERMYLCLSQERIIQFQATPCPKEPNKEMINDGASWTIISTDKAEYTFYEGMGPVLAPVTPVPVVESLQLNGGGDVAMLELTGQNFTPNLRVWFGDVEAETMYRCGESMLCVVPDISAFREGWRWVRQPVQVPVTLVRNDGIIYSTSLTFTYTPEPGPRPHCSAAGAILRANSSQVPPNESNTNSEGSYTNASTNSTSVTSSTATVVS
A further experiment has as its target T2, RBPJ (Homo sapiens, UniProt Q06330).
T2 construct: SFB (cSFB) (C); made in house; host or cells: 293F cells
Description: Biomolecular interaction analysis with purified recombinant RBPJ and FBXO42 proteins. In kind it is binding. As to conditions: in vitro, RBPJ 225 nM on SA probe, FBXO42 19.5 nM-625 nM (FIG. 3I). The text has this:
(A) Interaction network of FBXO42. Top 50 interactors identified in TAP-MS was shown. (B) KEGG enrichment analysis of preys acquired in FBXO42 tandem-affinity purification (TAP)-MS. The x-axis represents gene ratio=count/set size. The size of the dots represents the number of genes associated with the GO term and the color of the dots represent the adjusted P-values. (C) Circos plot showing overlapping RBPJ and FBXO42 preys. Purple lines link the genes that shared by RBPJ and FBXO42. Blue lines link different genes enriched in the same ontology term. (D and E) HEK293T cell lysates were incubated with IgG control and antibodies against FBXO42 (D) or RBPJ (E). Five percent lysate was used as the input control. Blots with antibodies recognizing RBPJ, FBXO42 and Actin are shown. (F and G) HEK293T cells were cotransfected with Myc-tagged FBXO42 and cSFB-tagged RBPJ, as indicated. The cell lysates were incubated with S beads (F) or an anti-MYC antibody (G). Five percent lysate was used as the input control. Blots with antibodies recognizing the FLAG and MYC epitope tags and Actin are shown. (H) Coomassie blue staining of cSFB-tagged RBPJ and FLAG-FBXO42 proteins purified from 293F cells. (I) Biomolecular interaction kinetics curve showing the binding affinity between purified RBPJ and FBXO42 proteins. The RBPJ was used at 225 nM for binding to SA probe. […]

T2 sequence (Q06330 whole entry): as above
T1 sequence (Q13616 whole entry): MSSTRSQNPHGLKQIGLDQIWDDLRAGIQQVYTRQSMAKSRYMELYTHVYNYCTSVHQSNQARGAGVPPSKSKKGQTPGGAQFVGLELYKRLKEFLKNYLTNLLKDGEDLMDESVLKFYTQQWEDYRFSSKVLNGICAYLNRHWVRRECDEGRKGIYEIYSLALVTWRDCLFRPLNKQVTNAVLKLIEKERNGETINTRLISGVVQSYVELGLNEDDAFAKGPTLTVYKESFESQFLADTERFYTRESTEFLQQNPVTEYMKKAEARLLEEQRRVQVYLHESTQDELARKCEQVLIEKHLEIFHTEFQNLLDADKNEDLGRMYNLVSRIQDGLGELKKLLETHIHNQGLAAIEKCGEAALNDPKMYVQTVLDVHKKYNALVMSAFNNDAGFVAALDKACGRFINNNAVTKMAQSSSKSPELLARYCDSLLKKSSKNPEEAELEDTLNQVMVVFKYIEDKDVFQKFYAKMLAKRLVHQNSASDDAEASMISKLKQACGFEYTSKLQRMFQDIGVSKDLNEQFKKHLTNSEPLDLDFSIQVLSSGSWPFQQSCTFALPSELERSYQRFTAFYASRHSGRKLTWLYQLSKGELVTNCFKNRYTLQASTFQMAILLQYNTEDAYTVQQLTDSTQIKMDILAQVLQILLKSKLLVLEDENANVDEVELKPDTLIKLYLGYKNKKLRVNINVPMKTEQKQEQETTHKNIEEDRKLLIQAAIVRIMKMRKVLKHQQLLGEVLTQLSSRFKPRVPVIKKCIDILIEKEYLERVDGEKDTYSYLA

B1: cSFB-FBXO42 (FBXO42 with C-terminal SFB tag) (other, UniProt Q6P3S6 1-717, looked up)
chain: MASSSDSEDDSFMAVDQEETVLEGTMDQDEEPHPVLEAEETRHNRSMSELPEEVLEYILSFLSPYQEHKTAALVCKQWYRLIKGVAHQCYHGFMKAVQEGNIQWESRTYPYPGTPITQRFSHSACYYDANQSMYVFGGCTQSSCNAAFNDLWRLDLNSKEWIRPLASGSYPSPKAGATLVVYKDLLVLFGGWTRPSPYPLHQPERFFDEIHTYSPSKNWWNCIVTTHGPPPMAGHSSCVIDDKMIVFGGSLGSRQMSNDVWVLDLEQWAWSKPNISGPSPHPRGGQSQIVIDDATILILGGCGGPNALFKDAWLLHMHSGPWAWQPLKVENEEHGAPELWCHPACRVGQCVVVFSQAPSGRAPLSPSLNSRPSPISATPPALVPETREYRSQSPVRSMDEAPCVNGRWGTLRPRAQRQTPSGSREGSLSPARGDGSPILNGGSLSPGTAAVGGSSLDSPVQAISPSTPSAPEGYDLKIGLSLAPRRGSLPDQKDLRLGSIDLNWDLKPASSSNPMDGMDNRTVGGSMRHPPEQTNGVHTPPHVASALAGAVSPGALRRSLEAIKAMSSKGPSASAALSPPLGSSPGSPGSQSLSSGETVPIPRPGPAQGDGHSLPPIARRLGHHPPQSLNVGKPLYQSMNCKPMQMYVLDIKDTKEKGRVKWKVFNSSSVVGPPETSLHTVVQGRGELIIFGGLMDKKQNVKYYPKTNALYFVRAKR
notes: Stably expressed in HEK293T cells as bait for TAP-MS; also called FBXO42 bait; not shown: C-terminal SFB tag
On to B1, for which the binding result with CUL1 is reported as “binds”. Moreover, the Kd in experiment [1] is 47 nM.

B2: FBXO42: purified recombinant F-box protein 42, substrate-recognition component of the SCF-type E3 ligase complex (protein)
chain: MASSSDSEDDSFMAVDQEETVLEGTMDQDEEPHPVLEAEETRHNRSMSELPEEVLEYILSFLSPYQEHKTAALVCKQWYRLIKGVAHQCYHGFMKAVQEGNIQWESRTYPYPGTPITQRFSHSACYYDANQSMYVFGGCTQSSCNAAFNDLWRLDLNSKEWIRPLASGSYPSPKAGATLVVYKDLLVLFGGWTRPSPYPLHQPERFFDEIHTYSPSKNWWNCIVTTHGPPPMAGHSSCVIDDKMIVFGGSLGSRQMSNDVWVLDLEQWAWSKPNISGPSPHPRGGQSQIVIDDATILILGGCGGPNALFKDAWLLHMHSGPWAWQPLKVENEEHGAPELWCHPACRVGQCVVVFSQAPSGRAPLSPSLNSRPSPISATPPALVPETREYRSQSPVRSMDEAPCVNGRWGTLRPRAQRQTPSGSREGSLSPARGDGSPILNGGSLSPGTAAVGGSSLDSPVQAISPSTPSAPEGYDLKIGLSLAPRRGSLPDQKDLRLGSIDLNWDLKPASSSNPMDGMDNRTVGGSMRHPPEQTNGVHTPPHVASALAGAVSPGALRRSLEAIKAMSSKGPSASAALSPPLGSSPGSPGSQSLSSGETVPIPRPGPAQGDGHSLPPIARRLGHHPPQSLNVGKPLYQSMNCKPMQMYVLDIKDTKEKGRVKWKVFNSSSVVGPPETSLHTVVQGRGELIIFGGLMDKKQNVKYYPKTNALYFVRAKR
modifications: left off: small tags and cut ends
notes: purified recombinant F-box protein 42, substrate-recognition component of the SCF-type E3 ligase complex
Consider B2, for which the Kd with RBPJ was found to be 47 nM.
